Assay results reported in patent US20250320284A1 (AC IMMUNE, published 2025).
Values belong to the binder of their own block, whether it stands above or below them.

Tests used:
PYD domain of human ASC = molecular target: T1, PYD domain of human ASC (human, UniProt Q9ULZ3 1-91, limits assumed); assay: ELISA, coated hPYD;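 also: monoclonal antibody binding to plate-coated human ASC PYD measured by ELISA, with a phosphatase substrate absorbance read-out and EC50 from a variable slope curve fit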
T1 construct: biotinylated in BLI; His/MBP-tagged in the alanine ELISA; also called hPYD; human PYD
T1 sequence (Q9ULZ3 1-91 limits assumed): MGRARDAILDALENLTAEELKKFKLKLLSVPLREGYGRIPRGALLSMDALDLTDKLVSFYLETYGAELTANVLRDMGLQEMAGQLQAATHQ

[1] = molecular target: T2, human ASC (apoptosis associated speck-like protein containing a caspase-recruitment domain) (human, UniProt Q9ULZ3 1-195); assay: SPR affinity mode, mAb captured;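 also: Single-cycle SPR kinetics with mAbs captured on goat anti-mouse antibody, double-referenced against blank flow cell and buffer cycle, fitted by a 1:1 kinetic model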
T2 construct: recombinant hASC in ELISA and SPR; endogenous ASC (cytoplasmic or specks) in Western blot and immunofluorescence; also called hASC; PYCARD

CARD domain of human ASC [2] = molecular target: T3, CARD domain of human ASC (human, UniProt Q9ULZ3 107-195); assay: ELISA, coated hCARD
T3 construct: biotinylated in BLI; also called hCARD; human CARD
T3 sequence: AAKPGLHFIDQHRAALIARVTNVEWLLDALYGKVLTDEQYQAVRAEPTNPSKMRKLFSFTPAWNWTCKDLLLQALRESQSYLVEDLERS

mouse ASC [3] = molecular target: T4, mouse ASC (mouse, UniProt Q9EPB4 1-193); assay: SPR affinity mode, steady-state fit, apparent KD; SPR affinity mode, mAb captured, mASC in solution; steady-state fit, apparent KD
T4 construct: recombinant mASC in ELISA and SPR; endogenous ASC of J774.A1 cells in Western blot and immunofluorescence; also called mASC
T4 sequence: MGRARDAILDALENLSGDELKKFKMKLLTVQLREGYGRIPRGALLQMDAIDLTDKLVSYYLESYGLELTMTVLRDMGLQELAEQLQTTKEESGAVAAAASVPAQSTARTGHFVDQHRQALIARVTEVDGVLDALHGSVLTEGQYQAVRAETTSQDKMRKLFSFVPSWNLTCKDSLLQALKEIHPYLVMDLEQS

[4] = molecular target: T2, human ASC (apoptosis associated …); assay: ELISA, coated hASC;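 also: antibody binding to plate-coated recombinant human ASC, read as phosphatase substrate absorbance, EC50 from four-parameter variable-slope fit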
[5] = molecular target: T2, human ASC (apoptosis associated …); assay: cell-based or functional assay
CARD domain of human ASC [6] = molecular target: T3, CARD domain of human ASC; assay: BLI binning on CARD, competitor 18F4C12-Ab1
CARD domain of human ASC [7] = molecular target: T3, CARD domain of human ASC; assay: BLI binning on CARD, competitor 2609F4A9-Ab1
CARD domain of human ASC [8] = molecular target: T3, CARD domain of human ASC; assay: BLI binning on CARD, competitor 2622E12F11-Ab1
CARD domain of human ASC [9] = molecular target: T3, CARD domain of human ASC; assay: BLI binning on CARD, competitor 2504F3D9-Ab1
mouse ASC [10] = molecular target: T4, mouse ASC; assay: cell-based or functional assay
CARD domain of human ASC [11] = molecular target: T3, CARD domain of human ASC; assay: BLI binning on CARD, competitor 32B6C7-Ab1
[12] = molecular target: T2, human ASC (apoptosis associated …); assay: cell-based or functional assay; remark: listed apart in the source
mouse ASC [13] = molecular target: T4, mouse ASC; assay: ELISA, coated mASC; ELISA on mASC protein
CARD domain of human ASC [14] = molecular target: T3, CARD domain of human ASC; assay: BLI binning on CARD, competitor 2629E8D1-Ab1
mouse ASC [15] = molecular target: T4, mouse ASC; assay: cell-based or functional assay; remark: listed apart in the source

binding result (PYD domain of human ASC): no binding | Kd [1]: 3.66 nM | koff [1]: 0.000786 s⁻¹ | kon [1]: 235000 M⁻¹ s⁻¹ | EC50 (CARD domain of human ASC [2]): 0.12 nM | Kd (mouse ASC [3]): 176 nM | EC50 [4]: 0.11 nM | IL-1β release, human monocytic cell line, IC50 [5]: 30.8 nM | normalized binding response (CARD domain of human ASC [6]): 18% | normalized binding response (CARD domain of human ASC [7]): 74% | normalized binding response (CARD domain of human ASC [8]): 0% | normalized binding response (CARD domain of human ASC [9]): -2% | % IL-1β inhibition, mouse primary microglia, 420 nM mAb (mouse ASC [10]): 95.9% | normalized binding response (CARD domain of human ASC [11]): 91% | Human ASC polymerization assay, IC50 [12]: 19.4 nM | EC50 (mouse ASC [13]): 0.16 nM | normalized binding response (CARD domain of human ASC [14]): 87%
B1: ACI-8016-2622E12F11-AB1 (antibody, V domains shown)
VH: RVQLQQAGAELVKPGASVKVSCKASGNTFNNYWIYWVKQRPGQGLEWIGRIHPSDSGTNYNQKFEGKATLTVDKSSGTAYMQLSSLTAEDSAVYYCALLSLYAMDSWGHGTSVTVSS
VL: DIVLTQSPASLAVSLGQRATISCRASKSVSSFGYNYIHWYLQKPGQPPKLLIYLASDLESGVPARFSGSGSGTGFTLNIHPVEEEDAATYYCQHSREFPWTFGGGTKLEIK

binding result (PYD domain of human ASC): no binding | Kd [1]: 8.3 nM | koff [1]: 0.000723 s⁻¹ | kon [1]: 89300 M⁻¹ s⁻¹ | EC50 (CARD domain of human ASC [2]): 0.13 nM | EC50 [4]: 0.19 nM | IL-1β release, human monocytic cell line, IC50 [5]: 16.7 nM | normalized binding response (CARD domain of human ASC [6]): 76% | normalized binding response (CARD domain of human ASC [7]): 17% | normalized binding response (CARD domain of human ASC [8]): 19% | normalized binding response (CARD domain of human ASC [9]): 0% | normalized binding response (CARD domain of human ASC [11]): 21% | normalized binding response (CARD domain of human ASC [14]): 20%
B2: ACI-8016-2504F3D9-AB1 (antibody, V domains shown)
VH: DVKLVESGEGLVKPGGSLKLSCAVSGFTFSNYAMSWVRQTPEKRLEWVAYISSGGDFIYYRDTVKGRFTISRDNARNTLYLQMSSLKSEDTAMYYCILQLRPEAWFAYWGQGTLVTVSA
VL: DIKMTQSPSSMYASLGERVTITCKASQDIKNYLSWFQQIPGKSPKTLIYRANRLVDGVPSRFSGSGSGQDYSLTISSLEYEDMGIYYCLQYYEFPYTFGGGTKLEIK

Kd (mouse ASC [3]): 34.4 nM | % IL-1β inhibition, mouse primary microglia, 420 nM mAb (mouse ASC [10]): 52% | Mouse ASC polymerization assay, IC50 (mouse ASC [15]): 27.3 nM | EC50 (mouse ASC [13]): 0.38 nM
B3: ACI-8016-2626B9D3-AB1 (antibody, V domains shown)
VH: QVQLQQPGTELVKPGASVKLSCRASGWTHWVKQRPGQGLEWIGNINLSNGRTNYNEKFRAMATLTVDKSSSTAYTQLSSLTSEDSAVYYCANSMVPHFFPMDYWGQGTSVTVSS
VL: NIVMTQYPKSMSLSIGERVTLRCKASENVGSYVSWYQQKPEQSPKLLIYGASNRYTGVPDRFTGSGSATDFILTITSVQAEDLADYHCGQSYNYPLTFGAGTKLELK

binding result (PYD domain of human ASC): no binding | Kd [1]: 24.9 nM | koff [1]: 0.00783 s⁻¹ | kon [1]: 297000 M⁻¹ s⁻¹ | EC50 (CARD domain of human ASC [2]): 0.11 nM | Kd (mouse ASC [3]): 168 nM | EC50 [4]: 0.12 nM | IL-1β release, human monocytic cell line, IC50 [5]: 16.2 nM | normalized binding response (CARD domain of human ASC [6]): 96% | normalized binding response (CARD domain of human ASC [7]): 0% | normalized binding response (CARD domain of human ASC [8]): 103% | normalized binding response (CARD domain of human ASC [9]): 0% | % IL-1β inhibition, mouse primary microglia, 420 nM mAb (mouse ASC [10]): 82.3% | normalized binding response (CARD domain of human ASC [11]): 7% | Human ASC polymerization assay, IC50 [12]: 32.8 nM | EC50 (mouse ASC [13]): 0.3 nM | normalized binding response (CARD domain of human ASC [14]): 0%
B4: ACI-8016-2609F4A9-AB1 (antibody, V domains shown)
VH: QVQLQQSDAELVKPGASVKISCKVSGYALTDHSIHWMKQRPEQGLAWIGYMYPGDGSANYNDKFRGKATLTADISSSTAYMHLNSLTSEDSAVYFCTRPYSFGSSYDYFGYWGQGTTLTVSS
VL: DIQMNQSPSSLSASLGDTITITCHASQNINVWLNWYQQKPGNIPKLLIYKASKLHTGVSSSFSGSGSGTGFTLTISSLQPEDIGTYYCQQGQSYPYTFGGGTKLEIK
